Source: paper PMC7497679, “Structure-based design, synthesis, and evaluation of the biological activity of novel phosphoroorganic small molecule IAP antagonists” (Investigational New Drugs, 2020)

Molecular target: X-linked inhibitor of apoptosis protein (XIAP) BIR3 domain (human)
Assay: fluorescence polarisation; competition: XIAP BIR3 (50 nM) added to the competitor (50 µM to 0.640 nM or to 0.0537 nM), 15 min at r.t., then probe 4 (2 nM), read 30 min later; phosphate buffer pH 7.5 with γ-globulin 100 µg/mL and NaN3 0.02%, final DMSO 1.4%

- EC50: 0.34 µM
B1: tetrapeptide H2N-Ala-Val-Pro-Trp-OH (3) (peptide)
peptide: H-AVPW-OH
